# Measurements reported in patent US20240383980A1 (VITRUVIAE, published 2024).
# T1: recombinant human CD25 (human, UniProt P01589 22-213, limits assumed)
# T1 construct: also called IL-2 receptor subunit a
# T1 sequence (looked up): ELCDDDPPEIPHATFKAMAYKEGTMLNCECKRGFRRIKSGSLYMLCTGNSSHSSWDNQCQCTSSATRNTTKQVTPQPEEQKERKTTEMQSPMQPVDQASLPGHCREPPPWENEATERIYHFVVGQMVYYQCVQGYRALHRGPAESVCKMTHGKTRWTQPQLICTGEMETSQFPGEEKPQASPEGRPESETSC
# B1: VP001 (Teplizumab H:C114S with V-IGG4-A) (antibody, human IgG4 S228P, kappa, F234A L235A, V domains shown)
# VH: QVQLVQSGGGVVQPGRSLRLSCKASGYTFTRYTMHWVRQAPGKGLEWIGYINPSRGYTNYNQKVKDRFTISRDNSKNTAFLQMDSLRPEDTGVYFCARYYDDHYSLDYWGQGTPVTVSS
# VL: DIQMTQSPSSLSASVGDRVTITCSASSSVSYMNWYQQTPGKAPKRWIYDTSKLASGVPSRFSGSGSGTDYTFTISSLQPEDIATYYCQQWSSNPFTFGQGTKLQITR
# notes: 4 chain IgG format (chVIT-100), IgG4 Fc with S228P, F234A, L235A, K322A; also called chVIT-100
# B2: VP008 (VCD25-L2H2 with V-IGG4-B) (antibody, human IgG4 S228P, kappa, F234A L235A, V domains shown)
# VH: QVQLVQSGAEVKKPGASVKVSCKASGYSFTRYWMHWVRQPPGQRLEWMGAIYPGNSDTSYSQKFEGRVTITADTSASTAYMELSSLRSEDTAVYYCSRDYGYYFDFWGQGTTVTVSS
# VL: EIVLTQSPDFQSVTPKEKVTITCRASSSRSYMQWYQQKPDQSPKRLIYDTSKSASGVPSRFSGSGSGTDYTLTINSLEAEDAATYYCHQRSSYTFGQGTKLEIKR
# notes: 4 chain IgG format (huVIT-101), IgG4; also called huBasiliximab H2L2; huVIT-101
# B3: VP101 (hu7G7-IgG4) (antibody, V domains shown)
# VH: EVQLVESGGGLVQPGGSLRLSCAASGFTFSSYGMSWVRQAPGKRLELVATINGYGDTTYYPDSVKGRFTISRDNAKNTLYLQMNSLRAEDTAVYYCARDRDYGNSYYYALDYWGQGTLVTVSS
# VL: EIVLTQSPATLSLSPGERATLSCRASSSVSFMHWLQQKPGQAPKPLIYATSNLASGIPARFSGSGSGTDYTLTISSLEPEDFAVYYCQQWSSNPPAFGGGTKVEIKR
# notes: Humanized 7G7 on human IgG4
# B4: VP103 (chimeric alpaca anti-CD3 VHH F10-human IgG4) (Fc fusion)
# chain: QVQLQESGGGLVQAGGSLTLSCAASGFTLDDYAIGWFRQAPGKEREGVSCIRRSDGHTYSADSVKGRFTISSDNAKNTVYLQMNNLKPEDTAVYYCAAGTGWGRYFYAGMDYWGKGTQVTVSSGGGGSGGGGSGGGGSKYGPPCPPCPAPEAAGGPSVFLFPPKPKDTLMISRTPEVTCVVVDVSQEDPEVQFNWYVDGVEVHNAKTKPREEQFNSTYRVVSVLTVLHQDWLNGKEYKCAVSNKGLPSSIEKTISKAKGQPREPQVYTLPPSQEEMTKNQVSLTCLVKGFYPSDIAVEWESNGQPENNYKTTPPVLDSDGSFFLYSRLTVDKSRWQEGNVFSCSVMHEALHNHYTQKSLSLSLGK
# notes: VHH-linker-IgG4 Fc chain; also called Alpaca Anti-CD3 nanobody F10 with V-IGG4-A-Fc
# B5: VP002 (huOKT3 VCD3-L3H3 with V-IGG4-A) (antibody, human IgG4 S228P, kappa, F234A L235A, V domains shown)
# VH: QVQLVQSGAEVKKPGASVKVSCKASGYTFTRYTMHWVRQSPGQGLEWMGYINPSRGYTNYNQKFQGRVTMTTDKSTSTAYMELSSLRSEDTAVYYCARYYDDHYSLDYWGQGTTVTVSS
# VL: EIQLTQSPATLSLSPGERATLSCRASSSVSYMNWYQQKPGQAPRRWIYDTSKLATGIPARFSGSGSGTDYTLTISSLEPEDAAVYYCQQWSSNPFTFGQGTKLEIKR
# notes: 4 chain IgG format (huVIT-100), IgG4; also called huOKT3 H3L3; huVIT-100
# B6: VP104 (Humanized F10A VHH (C55A)-IgG4) (Fc fusion)
# chain: EVQLLESGGGLVQPGGSLRLSCAASGFTLDDYAIGWVRQAPGKGREGVSAIRRSDGHTYYADSVKGRFTISSDNSKNTVYLQMNSLRAEDTAVYYCAAGTGWGRYFYAGMDYWGQGTLVTVSSGGGGSGGGGSGGGGSKYGPPCPPCPAPEAAGGPSVFLFPPKPKDTLMISRTPEVTCVVVDVSQEDPEVQFNWYVDGVEVHNAKTKPREEQFNSTYRVVSVLTVLHQDWLNGKEYKCAVSNKGLPSSIEKTISKAKGQPREPQVYTLPPSQEEMTKNQVSLTCLVKGFYPSDIAVEWESNGQPENNYKTTPPVLDSDGSFFLYSRLTVDKSRWQEGNVFSCSVMHEALHNHYTQKSLSLSLGK
# notes: also called humanized Anti-CD3 nanobody F10 with free Cys removed and with V-IGG4-A-Fc
# B7: VP100 (ch7G7-IgG4) (antibody, V domains shown)
# VH: EVQLVESGGDLVQPRGSLKLSCAASGFTFSSYGMSWVRQTPDKRLELVATINGYGDTTYYPDSVKGRFTISRDNAKNTLYLQMSSLKSEDTAMYFCARDRDYGNSYYYALDYWGQGTSVTVSS
# VL: QIVLSQSPAILSASPGERVTMTCRASSSVSFMHWLQQKPGSSPKPWIYATSNLASGVSARFSGSGSGTSYSLTITRVEAEDAATYYCQQWSSNPPAFGGGTKLEIKR
# notes: Chimeric 7G7 on human IgG4
# Key:
# [1] = molecular target: T2, recombinant human CD3de (Delta epsilon fusion) (human, UniProt P04234 22-105; P07766 23-126); test: SPR, Biacore T200; human CD3de immobilized on CM5 chip
# T2 construct: It is written here as two chains; also called recombinant human CD3de (delta epsilon subunits)
# recombinant human CD25 [2] = molecular target: T1, recombinant human CD25; test: SPR, Biacore T200; human CD25 immobilized on CM5 chip
# recombinant human CD25 [3] = molecular target: T1, recombinant human CD25; test: SPR, Biacore T200; human CD25 immobilized on CM5 chip; 1:1 fit
# recombinant human CD25 [4] = molecular target: T1, recombinant human CD25; test: SPR; human CD25 immobilized on CM5 chip (legend of FIG. 8b)
# recombinant human CD25 [5] = molecular target: T1, recombinant human CD25; test: SPR (Biacore T200), human CD25 immobilized on CM5 chip, VP101 injected at 3.125-100 nM, 1:1 fit
# [6] = molecular target: T3, recombinant cynomolgus CD3de (delta epsilon subunits) (cynomolgus, UniProt Q95LI8 22-105; Q95LI5 22-117); test: SPR (Biacore T200), cynomolgus CD3de immobilized on CM5 chip, VP103 injected at 3.125-100 nM, 1:1 fit
# Protocol: (§1) The binding affinities of VP103 (chimeric alpaca anti-CD3 VHH F10-human IgG4) and VP104 (Humanized F10A VHH (C55A)-IgG4) for recombinant human CD3de (delta epsilon subunits) and recombinant cynomolgus CD3de (delta epsilon subunits) were assessed by SPR on a Biacore T200 (GE Healthcare). FIGS. 13a and 13b show the SPR sensorgrams for VP103 to human CD3de and cynomolgus CD3de immobilized onto the surface of CM5 sensor chip. FIGS. 14a and 14b show the SPR sensorgrams for VP104 to human CD3de and cynomolgus CD3de immobilized onto the surface of CM5 sensor chip. The data were fit with a 1:1 fitting model. […] These constructs can also be paired with anti-CD25 VP008, which is based on basiliximab, which is known to cross-react with cynomolgus CD25.
# [7] = molecular target: T2, recombinant human CD3de (Delta epsilon …); test: SPR, Biacore T200; human CD3de immobilized on CM5 chip; 1:1 fit
# Protocol: as §1
# [8] = molecular target: T2, recombinant human CD3de (Delta epsilon …); test: SPR (Biacore T200), human CD3de immobilized on CM5 chip, VP103 injected at 3.125-100 nM, 1:1 fit
# Protocol: as §1
# [9] = molecular target: T3, recombinant cynomolgus CD3de (delta …); test: SPR, Biacore T200; cynomolgus CD3de immobilized on CM5 chip; 1:1 fit
# Protocol: as §1
# [10] = molecular target: T3, recombinant cynomolgus CD3de (delta …); test: SPR (Biacore T200), cynomolgus CD3de immobilized on CM5 chip, VP104 injected at 3.125-100 nM, 1:1 fit
# Protocol: as §1
# [11] = molecular target: T2, recombinant human CD3de (Delta epsilon …); test: SPR (Biacore T200), human CD3de immobilized on CM5 chip, VP104 injected at 3.125-100 nM, 1:1 fit
# Protocol: as §1
# recombinant human CD25 [12] = molecular target: T1, recombinant human CD25; test: SPR; human CD25 immobilized on CM5 chip (legend of FIG. 8a)
# recombinant human CD25 [13] = molecular target: T1, recombinant human CD25; test: SPR (Biacore T200), human CD25 immobilized on CM5 chip, VP100 injected at 3.125-100 nM, 1:1 fit
# T3 sequence (Q95LI8 22-105, stated change not applied, chain 1 of 2): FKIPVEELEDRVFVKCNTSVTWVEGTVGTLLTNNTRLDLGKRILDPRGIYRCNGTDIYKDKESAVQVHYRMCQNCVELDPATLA
# T3 sequence (Q95LI5 22-117, stated change not applied, chain 2 of 2): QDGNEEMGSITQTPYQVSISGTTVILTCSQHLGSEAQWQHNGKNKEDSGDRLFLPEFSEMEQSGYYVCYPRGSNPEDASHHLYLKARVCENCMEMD
# T2 sequence (P04234 22-105, stated change not applied, chain 1 of 2): as the sequence (Q95LI8 22-105, stated change not applied, chain 1 of 2) above, with V5I, K15N, V20I, T32S, N33D, N34I, A64T, N74S, L83V counted along it
# T2 sequence (P07766 23-126, stated change not applied, chain 2 of 2): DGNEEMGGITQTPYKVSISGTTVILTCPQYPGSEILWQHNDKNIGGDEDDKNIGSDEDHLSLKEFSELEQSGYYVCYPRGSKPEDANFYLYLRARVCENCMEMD
binder,measurement,setting,value
B1,Kd,[1],5.2 nM
B2,Kd,recombinant human CD25 [2],1.2 nM
B3,Kd,recombinant human CD25 [3],< 0.001 nM
same,Kd,recombinant human CD25 [4],< 1 nM
same,Kd,recombinant human CD25 [5],0.001 nM
same,koff,recombinant human CD25 [5],1.64e-07 s⁻¹
same,kon,recombinant human CD25 [5],126000 M⁻¹ s⁻¹
B4,koff,[6],0.00112 s⁻¹
same,kon,[6],406000 M⁻¹ s⁻¹
same,Kd,[7],3.7 nM
same,koff,[8],0.000972 s⁻¹
same,kon,[8],261000 M⁻¹ s⁻¹
same,Kd,[9],2.8 nM
B5,Kd,[1],12.4 nM
B6,koff,[10],0.0516 s⁻¹
same,kon,[10],3.89e+06 M⁻¹ s⁻¹
same,Kd,[7],14.2 nM
same,koff,[11],0.0651 s⁻¹
same,kon,[11],4.58e+06 M⁻¹ s⁻¹
same,Kd,[9],13.3 nM
B7,Kd,recombinant human CD25 [12],3.8 nM
same,Kd,recombinant human CD25 [13],0.009 nM
same,koff,recombinant human CD25 [13],3.56e-06 s⁻¹
same,kon,recombinant human CD25 [13],392000 M⁻¹ s⁻¹
